Legend:
[1] = biological target: T1, SAI/II antigen (SAI/II adhesion of S. mutans) (Streptococcus mutans, UniProt P23504 39-1532); test: ELISA, SAI/II coated, culture supernatant; integrated strain against plasmid strain (same polypeptide, different amount)
T1 construct: Coated on ELISA plates at 1 ug/ml in PBS
T1 sequence (looked up): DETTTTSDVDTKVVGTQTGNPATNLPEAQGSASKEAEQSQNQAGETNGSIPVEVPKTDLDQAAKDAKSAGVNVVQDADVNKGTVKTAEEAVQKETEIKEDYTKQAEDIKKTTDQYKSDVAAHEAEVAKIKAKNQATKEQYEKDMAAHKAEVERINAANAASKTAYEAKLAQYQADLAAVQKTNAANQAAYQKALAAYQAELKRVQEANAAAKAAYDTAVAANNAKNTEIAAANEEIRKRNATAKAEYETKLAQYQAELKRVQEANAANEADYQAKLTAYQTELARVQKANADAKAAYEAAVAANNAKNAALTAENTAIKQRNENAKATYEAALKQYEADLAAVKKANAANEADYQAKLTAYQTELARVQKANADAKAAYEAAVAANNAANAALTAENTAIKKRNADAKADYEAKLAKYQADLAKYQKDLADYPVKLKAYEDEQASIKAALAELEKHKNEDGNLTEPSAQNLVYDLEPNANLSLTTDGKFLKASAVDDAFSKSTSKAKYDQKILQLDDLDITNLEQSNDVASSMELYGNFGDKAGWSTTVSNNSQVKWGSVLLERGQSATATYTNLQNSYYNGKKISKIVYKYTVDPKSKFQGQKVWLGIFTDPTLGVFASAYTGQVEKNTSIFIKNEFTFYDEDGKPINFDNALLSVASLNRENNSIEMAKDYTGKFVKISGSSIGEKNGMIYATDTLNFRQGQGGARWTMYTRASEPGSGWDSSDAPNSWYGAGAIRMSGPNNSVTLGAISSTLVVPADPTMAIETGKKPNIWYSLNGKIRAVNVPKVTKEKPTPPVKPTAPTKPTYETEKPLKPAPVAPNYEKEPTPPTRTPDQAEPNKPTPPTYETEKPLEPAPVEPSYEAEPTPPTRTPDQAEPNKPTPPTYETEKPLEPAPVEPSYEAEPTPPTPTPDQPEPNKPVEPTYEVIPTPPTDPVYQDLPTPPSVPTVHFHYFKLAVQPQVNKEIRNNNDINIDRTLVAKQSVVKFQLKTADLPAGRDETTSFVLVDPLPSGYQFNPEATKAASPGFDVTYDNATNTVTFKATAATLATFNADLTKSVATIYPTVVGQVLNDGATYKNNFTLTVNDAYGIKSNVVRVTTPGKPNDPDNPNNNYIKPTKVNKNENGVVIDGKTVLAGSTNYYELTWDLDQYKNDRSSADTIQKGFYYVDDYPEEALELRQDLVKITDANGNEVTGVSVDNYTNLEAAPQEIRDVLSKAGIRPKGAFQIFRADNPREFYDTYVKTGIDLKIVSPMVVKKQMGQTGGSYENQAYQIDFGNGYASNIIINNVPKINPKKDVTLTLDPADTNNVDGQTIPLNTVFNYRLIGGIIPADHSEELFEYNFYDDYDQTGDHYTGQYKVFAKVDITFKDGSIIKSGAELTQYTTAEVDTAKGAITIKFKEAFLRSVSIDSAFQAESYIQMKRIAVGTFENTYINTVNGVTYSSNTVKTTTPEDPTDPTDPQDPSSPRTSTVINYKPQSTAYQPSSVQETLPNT

[2] = biological target: T1, SAI/II antigen (SAI/II adhesion of S. …); test: ELISA, SAI/II coated, whole bacterial cells; integrated strain against plasmid strain (same polypeptide, different amount)

B1: secreted and attached scFv anti-SAI/II (E-tagged) fused to the middle region and C-terminal domain of APF, produced by L. paracasei pAF400 (plasmid) or L. … (scFv)
scFv: AIVEGSAAQPAMDAQVKLQESGPDLVKPGASVKISCKASGYTFTDYNIHWVKQSRGKSLEWIGYIYPYNGNTYYNQKFKNKATLTVDNSSTSAYMELRSLTPEDSAVYYCATYFDYWGQGTTVTVSSGGGGSGGGGSGGGGSDIELTQSPAIMSASPGEKVTITCSASSSVSYMHWFQQKPGTSPKLWLYSTSNLASGVPARFSGSGSGTSYSLTISRMEAEDAATYYCHQRTSYPYTFGGGTKLEIKRAAAAGAPVPYPDPLEPRAAASEELYHTQAAVTQAPVQHQTQTENTNSAATTTAANNTNTQTTTSTVSGSEASAKEWIAGRESGGSYGASNGQYVGKYQLSASYLNGDYSAANQERVADNYVKGRYGSWTAAKAFWQANGWY
notes: Same polypeptide from the plasmid strain and the integrated strain (pEM171 = pEM76 with the expression cassette of pAF400); tested as culture supernatant and as whole cells (attached form); also called pEM171
fold reduction in binding activity against the corresponding plasmid system (L. paracasei pAF400) [1]: 4 fold

B2: secreted scFv anti-SAI/II (E-tagged) produced by L. paracasei pAF100 (plasmid) or L. paracasei EM182 (chromosomally integrated) (scFv)
scFv: AIVEGSAAQPAMDAQVKLQESGPDLVKPGASVKISCKASGYTFTDYNIHWVKQSRGKSLEWIGYIYPYNGNTYYNQKFKNKATLTVDNSSTSAYMELRSLTPEDSAVYYCATYFDYWGQGTTVTVSSGGGGSGGGGSGGGGSDIELTQSPAIMSASPGEKVTITCSASSSVSYMHWFQQKPGTSPKLWLYSTSNLASGVPARFSGSGSGTSYSLTISRMEAEDAATYYCHQRTSYPYTFGGGTKLEIKRAAAAGAPVPYPDPLEPRAA
notes: Same polypeptide from the plasmid strain and the integrated strain (pEM182 = pEM76 with the expression cassette of pAF100); tested as culture supernatant; also called pEM182
fold reduction in binding activity against the corresponding plasmid system (L. paracasei pAF100) [1]: ≥ 8 fold

B3: surface anchored scFv anti-SAI/II (E-tagged) fused to the prtP anchor region, displayed on L. paracasei pAF900 (plasmid) or L. paracasei EM181 (chromosomally … (scFv)
scFv: AIVEGSAAQPAMDAQVKLQESGPDLVKPGASVKISCKASGYTFTDYNIHWVKQSRGKSLEWIGYIYPYNGNTYYNQKFKNKATLTVDNSSTSAYMELRSLTPEDSAVYYCATYFDYWGQGTTVTVSSGGGGSGGGGSGGGGSDIELTQSPAIMSASPGEKVTITCSASSSVSYMHWFQQKPGTSPKLWLYSTSNLASGVPARFSGSGSGTSYSLTISRMEAEDAATYYCHQRTSYPYTFGGGTKLEIKRAAAAGAPVPYPDPLEPRAAASKKTSLLNQLQSVKAALGTDLGNQTDPSTGKTFMAALDDLVAQAQAGTQTADQLQASLAKVLDAVLAKLAEGIKAATPAEVGNAKDAATGKTWYADIADTLTSGQASADASDKLAHLQALQSLKTKVAAAVEAAKTAGKGDDTSGTSDKGGGQGTPAPAPGDTGKNKGDEGSQPSSGGNIPTKPATTTSTSTDDTTDRNGQHTSGKGALPKTAETTERPAFGFLGVIVVSLMGVLGLKRKQREE
modifications: On the cells the chain is covalently linked to the cell wall through the prtP anchor (LPXTG-type motif, here LPKTA at residues 478-482).
notes: Same polypeptide from the plasmid strain and the integrated strain (pEM181 = pEM76 with the expression cassette of pAF900); tested as whole bacterial cells; (precursor, before any processing on anchoring to the cell wall); also called pEM181
fold lower binding level than L. paracasei pAF900 [2]: < 16 fold

From patent US20130323819A1 (HERA PHARMACEUTICALS, published 2013)
